Laboratory results published in the RNAGym collection of RNA variant scans (doi:10.7554/elife.90254).

B1: LINE1-full (parent)
chain: UACGUAGGUGGUUUUCCCCUGAUAGUGCUAAGGGGGCCUGGAAGUUUGGACUGGGCAGAGCUCAACACAGCGUGGCAAAGUGGCUGUGGCUAGACUGCCUCUCUGGAUUCCUCGUCACUCAGCAGGGCAUCUCUGAGAGAAAUGCC

Variants of: B1
Experiment: self-cleavage, relative activity (ratio to wild type); higher = more cleavage; in vitro, sequencing; the parent is a self-cleaving ribozyme
Variant U9C U85G has a self-cleavage of 0.27.
For U109C A124G, the self-cleavage was 0.78.
G54A A69G gave a self-cleavage of 0.18.
U1C C90A gave a self-cleavage of 0.
U47G A65C showed a self-cleavage of 0.
Work on G25A A69G yielded a self-cleavage of 0.41.
Work on U115A A117U yielded a self-cleavage of 1.82.
Work on A59G A124G yielded a self-cleavage of 0.13.
For U52C U85C, the self-cleavage was 0.31.
Variant U1C G41A has a self-cleavage of 0.52.
With U23A the self-cleavage was 1.3.
In the case of G36A C84U, the self-cleavage is reported as 0.15.
Work on A43U G135U yielded a self-cleavage of 1.43.
In the case of U100C C128U, the self-cleavage is reported as 1.58.
In the case of U15C U46C, the self-cleavage is reported as 1.31.
U20G U109C showed a self-cleavage of 0.93.
Work on U52C C95G yielded a self-cleavage of 0.09.
U5C U47A showed a self-cleavage of 0.92.
With G105C U132C the self-cleavage was 1.53.
In the case of U112C U134A, the self-cleavage is reported as 0.61.
With A30C U112C the self-cleavage was 1.33.
G58U U132C showed a self-cleavage of 0.01.
For G53A A57G, the self-cleavage was 0.73.
For A22G U45C, the self-cleavage was 1.33.
A42G A138U gave a self-cleavage of 1.6.
For U104C A124U, the self-cleavage was 1.76.
Work on A77G U96G yielded a self-cleavage of 0.16.
Work on C38G U39G yielded a self-cleavage of 1.28.
G7U U87C showed a self-cleavage of 0.18.
U91C A141G gave a self-cleavage of 0.92.
U108G U112C gave a self-cleavage of 2.58.
U96C A142G gave a self-cleavage of 0.13.
Variant U108C C145A has a self-cleavage of 1.47.
In the case of A78G A117C, the self-cleavage is reported as 1.69.
In the case of A43U A94U, the self-cleavage is reported as 0.24.
In the case of C56U A142U, the self-cleavage is reported as 0.23.
U96C A124U gave a self-cleavage of 0.14.
U100A G125A gave a self-cleavage of 1.05.
For A2G U29C, the self-cleavage was 0.81.
C99A A136G gave a self-cleavage of 0.99.
Work on C18U U62C yielded a self-cleavage of 0.08.
For C51U C90A, the self-cleavage was 0.01.
Work on G21A G137A yielded a self-cleavage of 1.21.
In the case of A50U A67G, the self-cleavage is reported as 0.33.
U115G A138G gave a self-cleavage of 2.15.
U87C A138U showed a self-cleavage of 0.24.
With C16A A79G the self-cleavage was 0.62.
Variant U91A U115C has a self-cleavage of 0.78.
U12C G54A gave a self-cleavage of 0.62.
With U20A U85G the self-cleavage was 0.1.
With U26A U29C the self-cleavage was 1.44.
Work on A22G A67U yielded a self-cleavage of 0.23.
Work on U87C A121G yielded a self-cleavage of 0.15.
A67G C131U gave a self-cleavage of 0.56.
U13A A121U showed a self-cleavage of 1.12.
For U12C G127C, the self-cleavage was 1.84.
U46A U87C showed a self-cleavage of 0.19.
For U14C A79U, the self-cleavage was 1.97.
G53A U115C gave a self-cleavage of 1.07.
Variant U102A C120U has a self-cleavage of 1.65.
U20A A50G gave a self-cleavage of 1.2.
In the case of U26A A43G, the self-cleavage is reported as 0.97.
In the case of C61G U85C, the self-cleavage is reported as 0.15.
G114A U132A showed a self-cleavage of 1.64.
U13C A107C gave a self-cleavage of 0.94.
With U45C C71A the self-cleavage was 0.15.
Work on U85C U134A yielded a self-cleavage of 0.14.
Work on A50U A57G yielded a self-cleavage of 0.08.
With G35A A117G the self-cleavage was 1.7.
Work on U130C yielded a self-cleavage of 1.52.
G55C C120U gave a self-cleavage of 0.27.
Work on U20A A136G yielded a self-cleavage of 0.93.
A67G U112A showed a self-cleavage of 0.53.
For A94U C101U, the self-cleavage was 0.31.
Work on A31U A59U yielded a self-cleavage of 0.39.
Work on U9G U108C yielded a self-cleavage of 1.37.
For G53A U102A, the self-cleavage was 1.3.
In the case of U1A U9A, the self-cleavage is reported as 1.15.
With U12C C146G the self-cleavage was 1.03.
With U14C A65U the self-cleavage was 0.19.
In the case of U29G U47A, the self-cleavage is reported as 1.41.
In the case of U15C A50C, the self-cleavage is reported as 2.42.
With A129U A138U the self-cleavage was 1.47.
Work on C71U U130A yielded a self-cleavage of 1.
Variant U26A U47G has a self-cleavage of 1.6.
With C19U U47A the self-cleavage was 0.69.
Variant U9C A22U has a self-cleavage of 0.89.
A59U U134G gave a self-cleavage of 1.26.
For A138G C146A, the self-cleavage was 1.17.
With U12A U52A the self-cleavage was 1.28.
In the case of U52A A59U, the self-cleavage is reported as 0.4.
For G126A G127U, the self-cleavage was 1.44.
For U39A G80A, the self-cleavage was 2.24.
Variant U13C G36A has a self-cleavage of 1.2.
A64G A129G showed a self-cleavage of 0.29.
Work on U45A A64G yielded a self-cleavage of 0.57.
Variant U112A A138U has a self-cleavage of 2.19.
For C63A A64G, the self-cleavage was 0.02.
In the case of C61A C123U, the self-cleavage is reported as 0.03.
G44A A59G gave a self-cleavage of 0.03.
Variant U1G G114C has a self-cleavage of 0.52.
Variant U12A A140G has a self-cleavage of 1.51.
Work on U13A U130C yielded a self-cleavage of 1.22.
For A2G A6G, the self-cleavage was 0.68.
Work on G106A C128U yielded a self-cleavage of 1.7.
Variant U12C U13C has a self-cleavage of 1.2.
U12C U13A showed a self-cleavage of 0.27.
Variant A107G G126C has a self-cleavage of 2.78.
In the case of U45A C99U, the self-cleavage is reported as 0.59.
In the case of A30G A141G, the self-cleavage is reported as 1.26.
Variant U12C G75A has a self-cleavage of 1.46.
In the case of U14A U87C, the self-cleavage is reported as 0.12.
Work on G10A U47C yielded a self-cleavage of 1.37.
With U5C U119C the self-cleavage was 1.41.
In the case of U26C A92U, the self-cleavage is reported as 0.81.
A64G U134C gave a self-cleavage of 0.28.
In the case of A2G A43U, the self-cleavage is reported as 1.34.
For C71A A78G, the self-cleavage was 0.19.
Work on U39A A42G yielded a self-cleavage of 1.21.
U12G A43G gave a self-cleavage of 1.41.
Work on U9G A141U yielded a self-cleavage of 0.52.
For U108C G135A, the self-cleavage was 1.6.
For U13A U26A, the self-cleavage was 0.78.
For G21C U109C, the self-cleavage was 1.18.
U52A A141G showed a self-cleavage of 1.11.
C120U A129G gave a self-cleavage of 1.84.
With U9C G34C the self-cleavage was 0.8.
In the case of A67C U108C, the self-cleavage is reported as 0.
Work on U87G A124G yielded a self-cleavage of 0.31.
Work on A2G A136G yielded a self-cleavage of 0.82.
Variant A59G U130A has a self-cleavage of 0.1.
In the case of U15C G125A, the self-cleavage is reported as 0.87.
Work on G105A A121U yielded a self-cleavage of 1.46.
In the case of C110U G127A, the self-cleavage is reported as 1.35.
Work on G114A yielded a self-cleavage of 1.17.
Work on C3U A57U yielded a self-cleavage of 0.17.
In the case of U9A A92U, the self-cleavage is reported as 0.73.
G93A U115C gave a self-cleavage of 0.04.
Work on U9C U87A yielded a self-cleavage of 0.2.
A65C U119A gave a self-cleavage of 0.
U1A U15C showed a self-cleavage of 2.17.
In the case of G7U U91A, the self-cleavage is reported as 1.12.
A69G U104C showed a self-cleavage of 0.71.
C19U A31U gave a self-cleavage of 1.35.
G55C U108C showed a self-cleavage of 0.18.
With A24G G35A the self-cleavage was 0.69.
A24G A57G showed a self-cleavage of 1.14.
A31U A121G showed a self-cleavage of 1.
Variant G40U A59C has a self-cleavage of 0.82.
U47C U143C gave a self-cleavage of 1.57.
Work on U112C A124G yielded a self-cleavage of 0.64.
For G55A C95U, the self-cleavage was 0.11.
In the case of C101U U115C, the self-cleavage is reported as 1.49.
Variant A78C U119C has a self-cleavage of 2.95.
With A43C G97A the self-cleavage was 0.09.
Work on G54U A138U yielded a self-cleavage of 1.01.
Work on U15C A65U yielded a self-cleavage of 0.2.
In the case of C38A, the self-cleavage is reported as 1.28.
For A67G C99U, the self-cleavage was 0.27.
Variant U9G A67G has a self-cleavage of 0.37.
G7A U102C showed a self-cleavage of 1.77.
In the case of U100A A124G, the self-cleavage is reported as 1.02.
G122C A140G gave a self-cleavage of 1.36.
G7A G75A showed a self-cleavage of 0.95.
With U39C U52A the self-cleavage was 1.4.
In the case of U39C U52C, the self-cleavage is reported as 0.37.
G54A U62C gave a self-cleavage of 0.07.
